Results as given in the supplement of paper PMC7877785.
± gives the uncertainty stated by the source.

Assay: self-splicing fitness, log relative to wild type (ln ratio); higher = more splicing; Tetrahymena group I intron in knt gene, E. coli kanamycin selection, DiMSum; sequences stand for … in CUCUCU…GGAGGGAAAAGUUAUCAGGCAUGCACCUGGUAGCUAGUCUUUAAACCAAUAGAUUGCAUCGGUUUAAAAGGCAAGACCGUCAAAUUGCGGGAAAGGGGUCAACAGCCGUUCAGUACCAAGUCUCAGGGGAAACUUUGAGAUGGCCUUGCAAAGGGUAUGGUAAUAAGCUGACGGACAUGGUCCUAACCACGCAGCCAAGUCCUAAGUCAACAGAUCUUCUGUUGAUAUGGAUGCAGUUCACAGACUAAAUGUCGGUCGGGGAAGAUGUAUUCUUCUCAUAAGAUAUAGUCGGACCUCUCCUUAAUGGGAGCUAGCGGAUGAAGUGAUGCAACACUGGAGCCGCUGGGAACUAAUUUGUAUGCGAAAGUAUAUUGAUUAGUUUUGGAGUACUCGUGGUCG
How it was run: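 Six replicate transformations of E. coli BL21(DE3) with a pET-22b(+) library were grown overnight at 37°C or 30°C. The library randomised all eight P1ex-region intron nucleotides, the intron lying in the knt kanamycin-resistance gene, and plates were LB agar with or without 25 μg/mL kanamycin plus 100 μg/mL carbenicillin, 50 μM IPTG and 0.2% rhamnose. Pooled colonies were amplicon-sequenced on an Illumina HiSeq 2500, and fitness is the DiMSum error-weighted combination of wild-type-normalised replicate fold changes, kanamycin versus none.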

Sequence	self-splicing fitness (ln) (30 °C)	self-splicing fitness (ln) (37 °C)
AGGCAGCAAUAUUACGCUAA	-1.05 ± 0.097	-0.682 ± 0.11
AGAUAGCAAUAUUACGAAUU	-2.43 ± 0.15	-1.25 ± 0.16
AUCCAGCAAUAUUACGUCCU	-1.47 ± 0.11	-0.253 ± 0.14
GUCCAGCAAUAUUACGGUAC	-2.97 ± 0.18	-1.92 ± 0.17
CCCCAGCAAUAUUACGGGUG	-3.8 ± 0.12	-2.91 ± 0.13
UUACAGCAAUAUUACGACGG	-0.531 ± 0.097	0.113 ± 0.13
CCGUAGCAAUAUUACGGGGA	-3.45 ± 0.25	-3.11 ± 0.25
CUGUAGCAAUAUUACGAUAC	-2.43 ± 0.29	
CAUCAGCAAUAUUACGGGUU	-1.8 ± 0.067	-0.61 ± 0.08
CUUCAGCAAUAUUACGAAAG	-2.44 ± 0.077	-1.55 ± 0.12
GGUCAGCAAUAUUACGCGUU	-0.112 ± 0.084	0.0966 ± 0.13
UUUUAGCAAUAUUACGCGCG	-0.432 ± 0.11	-0.122 ± 0.15
GCGCAGCAAUAUUACGCUCU	-3.21 ± 0.28	-1.29 ± 0.23
CACGAGCAAUAUUACGCCUU	-2.3 ± 0.2	-2.76 ± 0.4
AGACAGCAAUAUUACGUGGC	-3.01 ± 0.19	-2.12 ± 0.22
CCACAGCAAUAUUACGGGUG	-2.04 ± 0.05	-0.716 ± 0.059
GCUUAGCAAUAUUACGUUAG	-1.56 ± 0.13	-1.1 ± 0.15
UACUAGCAAUAUUACGAAGC	-2.06 ± 0.38	-3.04 ± 0.43
ACGAAGCAAUAUUACGUUGC	-3.45 ± 0.17	-1.8 ± 0.16
AUUGAGCAAUAUUACGGUCA	-2.13 ± 0.19	-0.756 ± 0.13
CUGUAGCAAUAUUACGAACA	-2 ± 0.41	
AAACAGCAAUAUUACGGUGU	-2.42 ± 0.06	-1.4 ± 0.071
CGGCAGCAAUAUUACGGGAC		-2.85 ± 0.47
GAUCAGCAAUAUUACGAGGC		-1.92 ± 0.23
CACCAGCAAUAUUACGCCGG	-2.23 ± 0.15	-0.937 ± 0.14

Sequence	self-splicing fitness (ln) (30 °C)	self-splicing fitness (ln) (37 °C)
AUCCAGCAAUAUUACGCACG	-1.68 ± 0.12	-0.334 ± 0.13
GGUAAGCAAUAUUACGACAG	-2.56 ± 0.29	-1.99 ± 0.44
UCUGAGCAAUAUUACGCUGG	-2 ± 0.16	-1.11 ± 0.17
UCGGAGCAAUAUUACGAAAU	-3.14 ± 0.49	
AAAGAGCAAUAUUACGGGGC	-4.4 ± 0.42	-2.79 ± 0.36
UCGAAGCAAUAUUACGGCAC	-1.74 ± 0.23	-1.95 ± 0.32
UCCUAGCAAUAUUACGACAA		-2.04 ± 0.29
AUGGAGCAAUAUUACGAGCA	-2.33 ± 0.46	-1.17 ± 0.49
CGAUAGCAAUAUUACGCGGA	-2.21 ± 0.22	-0.662 ± 0.15
CUUUAGCAAUAUUACGCUGU	-2.75 ± 0.25	-2.35 ± 0.37
UCAUAGCAAUAUUACGGCAA	-2.25 ± 0.13	-1.14 ± 0.1
ACACAGCAAUAUUACGCCAA	-2.36 ± 0.11	-2.54 ± 0.14
AUCAAGCAAUAUUACGUGUG	-1.57 ± 0.069	-1.32 ± 0.071
UCAAAGCAAUAUUACGCCGG	-0.974 ± 0.13	0.015 ± 0.15
CGUUAGCAAUAUUACGCUAA		0.0733 ± 0.29
CGGCAGCAAUAUUACGGCUC	-0.945 ± 0.11	-0.28 ± 0.15
CUCAAGCAAUAUUACGCCAA	-3.55 ± 0.33	-2.37 ± 0.31
UCCUAGCAAUAUUACGCCGC	-3.1 ± 0.26	-3.49 ± 0.35
GCGAAGCAAUAUUACGUACU	-0.436 ± 0.073	0.194 ± 0.09
AUCAAGCAAUAUUACGUUAC	-5.49 ± 0.45	-2.82 ± 0.27
GUACAGCAAUAUUACGUUCG	-1.45 ± 0.061	-0.316 ± 0.079
UAACAGCAAUAUUACGCCCG	-0.202 ± 0.16	-0.59 ± 0.18
ACAAAGCAAUAUUACGCAGG	-1.47 ± 0.064	-1.21 ± 0.08
UUCAAGCAAUAUUACGCUGG	-2.29 ± 0.13	-3.05 ± 0.24
UUAGAGCAAUAUUACGAUCG	-1.29 ± 0.15	-1.67 ± 0.16

Sequence	self-splicing fitness (ln) (30 °C)	self-splicing fitness (ln) (37 °C)
CGCCAGCAAUAUUACGGGCA	-0.258 ± 0.095	0.189 ± 0.095
AUGAAGCAAUAUUACGCGGA	-0.591 ± 0.1	-0.105 ± 0.12
ACAAAGCAAUAUUACGGUGU	-3.29 ± 0.14	-2.81 ± 0.15
GGGUAGCAAUAUUACGUACA	-1.34 ± 0.2	-0.763 ± 0.21
UCCUAGCAAUAUUACGCCCC	-2.75 ± 0.45	-2.12 ± 0.42
GCGUAGCAAUAUUACGCUCU	-3 ± 0.46	-1.59 ± 0.27
GUUGAGCAAUAUUACGGUCG		-1.73 ± 0.34
CACCAGCAAUAUUACGACCU	-3.45 ± 0.17	-1.35 ± 0.17
AGCCAGCAAUAUUACGUUAU	-3.94 ± 0.19	-1.75 ± 0.12
UCAAAGCAAUAUUACGAGUU	-4.25 ± 0.31	-2.28 ± 0.19
GAACAGCAAUAUUACGUUUA	-0.588 ± 0.07	-0.031 ± 0.078
UUAAAGCAAUAUUACGAUAC	-1.57 ± 0.13	-0.384 ± 0.16
GGUUAGCAAUAUUACGACCU	-1.72 ± 0.35	-0.0941 ± 0.33
CGGUAGCAAUAUUACGACGG	-0.359 ± 0.081	0.071 ± 0.12
AGGGAGCAAUAUUACGAGAU	-2.75 ± 0.29	-3.06 ± 0.48
GAUAAGCAAUAUUACGUUGU	-2.12 ± 0.089	-2.6 ± 0.11
AUCUAGCAAUAUUACGGAGC	-3.43 ± 0.19	-1.32 ± 0.14
AACGAGCAAUAUUACGUUCU	-2.19 ± 0.14	-1.93 ± 0.2
UCUCAGCAAUAUUACGAUAC	-1.92 ± 0.28	-2.46 ± 0.45
GCAAAGCAAUAUUACGGUCA	-1.12 ± 0.083	-0.197 ± 0.087
CCCCAGCAAUAUUACGAGUU	-4.17 ± 0.18	-2.31 ± 0.17
GUACAGCAAUAUUACGGGAG	-3.04 ± 0.21	-1.92 ± 0.15
UUGCAGCAAUAUUACGAUCC	-3.64 ± 0.47	-1.68 ± 0.35
CCGUAGCAAUAUUACGGAAA	-3.22 ± 0.42	-2.52 ± 0.46
ACCUAGCAAUAUUACGCUAA	-2.61 ± 0.23	-1.32 ± 0.16

Sequence	self-splicing fitness (ln) (30 °C)	self-splicing fitness (ln) (37 °C)
GCUAAGCAAUAUUACGCAUA	-1.97 ± 0.11	-1.5 ± 0.093
ACUUAGCAAUAUUACGGAGC	-3.46 ± 0.3	-0.469 ± 0.18
AUAUAGCAAUAUUACGUCGU	-1.12 ± 0.12	-0.541 ± 0.18
CCCAAGCAAUAUUACGUUCC	-3.87 ± 0.37	-2.3 ± 0.37
GACGAGCAAUAUUACGCGGA	-2.74 ± 0.23	-2.87 ± 0.36
AUUCAGCAAUAUUACGUCGC	-2.74 ± 0.099	-1.86 ± 0.11
UGCAAGCAAUAUUACGCCGG	-2.06 ± 0.13	-0.615 ± 0.17
GCAGAGCAAUAUUACGACGC	-3.56 ± 0.3	-1.69 ± 0.18
AGGCAGCAAUAUUACGCCUU		-3.04 ± 0.27
GAGUAGCAAUAUUACGCGAU	-2.26 ± 0.21	-2.21 ± 0.39
CGGGAGCAAUAUUACGAGCG	-1.78 ± 0.18	-1.19 ± 0.48
GCUCAGCAAUAUUACGCUCU	-1.09 ± 0.082	0.39 ± 0.12
AGGAAGCAAUAUUACGCUUA	-2.41 ± 0.2	-0.908 ± 0.17
CCCUAGCAAUAUUACGGAUU	-4.34 ± 0.23	-2.26 ± 0.16
AAGUAGCAAUAUUACGUUUG	-2.41 ± 0.13	-1.49 ± 0.13
GGCGAGCAAUAUUACGGCGG	-2 ± 0.39	-1.28 ± 0.37
AUCGAGCAAUAUUACGAUUA	-2.47 ± 0.23	0.0165 ± 0.12
UUGGAGCAAUAUUACGCGGA		-1.08 ± 0.36
UAGAAGCAAUAUUACGACCG	-0.345 ± 0.18	-0.138 ± 0.25
CGCUAGCAAUAUUACGCGCA	-1.81 ± 0.17	-1.52 ± 0.17
UUAGAGCAAUAUUACGCUGA	-2.6 ± 0.21	-0.656 ± 0.28
UUAUAGCAAUAUUACGAUAU	-1.97 ± 0.13	-0.578 ± 0.17
CCCGAGCAAUAUUACGAUUG	-2.74 ± 0.18	-2.63 ± 0.22
